From article PMC13581290, “A systematic interactome of Saccharomyces cerevisiae SET1C expands its functional landscape and identifies candidate regulatory connections” (eLife, 2026)

Target: T1, reconstituted SET1C (FLAG-Set1 and the seven other untagged subunits) (S. cerevisiae, UniProt P38827 1-1080; P39706 1-426; P36104 1-329; P38123 1-315; P43132 1-505; Q03323 …)
T1 construct: Set1, S. cerevisiae, full length (Set1 FL); Swd1, S. cerevisiae, untagged subunit; Swd2, S. cerevisiae, untagged subunit; Swd3, S. cerevisiae, untagged subunit; Bre2, S. cerevisiae, untagged subunit; Sdc1, S. cerevisiae, untagged subunit; Spp1, S. cerevisiae, untagged subunit; Shg1, S. cerevisiae, untagged subunit; The seven subunits are named in the introduction; also called full-length SET1C; …
Assay: pull-down; GST-tagged Snf2 fragments (250 nM) on glutathione-Sepharose 4B with SET1C or C762SET1C (25 nM), BSA 0.2 mg/ml; 20 mM Tris-Cl pH 7.9, 150 mM NaCl, 0.2 mM EDTA, 20% glycerol, 0.1% NP-40; 4°C, 3 hr; immunoblotting
Details: both partners purified

- binding result: binds
B1: GST-Snf2C-AT-hook (domain or fragment, S. cerevisiae, UniProt P22082 1384-1547, looked up)
chain: ARKQRTKKEDKSEAIDGNGEIKGENIDADNDGPRINNISAEDRADTDLAMNDDDFLSKKRKAGRPRGRPKKVKLEGSENSEPPALESSPVTGDNSPSEDFMDIPKPRTAGKTSVKSARTSTRGRGRGRGRGRGRGRGRGRPPKARNGLDYVRTPAAATSPIDIR
notes: Snf2, S. cerevisiae, AT-hook region 1384-1547; also called Snf2-AT-hook; GST-Snf2-AT-hook; source: E. coli BL21, purified
